Assay [1] addresses T1, ICOS (Inductible T cell costimulator) (UniProt Q9Y6W8 21-199, limits assumed).
T1 construct: whole, on cells; also called ICOS on JICOS.1 cells
T1 sequence (looked up): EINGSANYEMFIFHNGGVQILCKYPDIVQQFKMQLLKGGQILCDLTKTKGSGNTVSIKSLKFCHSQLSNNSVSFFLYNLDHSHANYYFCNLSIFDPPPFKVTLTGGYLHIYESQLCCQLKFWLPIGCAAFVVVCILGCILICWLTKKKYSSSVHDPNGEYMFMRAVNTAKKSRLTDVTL
The assay is described as follows: flow cytometry on JICOS.1 cells, inhibition of ICOS L-Fc binding to ICOS, revealed with GAH-PE; printed as [ID] 50. From the text:
(§1) They used a gradient of concentration of anti-ICOS mAbs and theyr reveled the fixation to ICOS L Fc thanks to a probe coupled to a fluorochrom (GAH-PE: Goat anti-human-PE). The analysis was made by flow cytometry.

Assay [2] addresses T1, ICOS (Inductible T cell costimulator). The assay is described as follows: flow cytometry on JICOS.1 cells (ICOS transfectants), mAb titration revealed with GAM-PE; printed as [ED] 50. As to the method: (§2) The inventors developed 5 anti-ICOS Abs. Their isotype was assayed by ELISA. For obtaining an indirect analysis of their affinity for their receptor, mAbs were tested using stable transfectants expressing ICOS. JICOS.1 cells were in the presence of an increasing range of anti-ICOS mAbs labeled with a probe coupled to a fluorochrome (PE-GAM: Goat anti mouse-PE) and the analysis was made thanks to cytometry flow.
On the technique in general: A flow cytometer gives signals particle by particle.

Assay [3] shares this target. The assay is described as follows: flow cytometry on JICOS.1 cells, inhibition of ICOS L-Fc binding to ICOS; printed as ID 50.
From the text: as §1

Assay [4] has the same target. The assay is described as follows: flow cytometry on JICOS.1 cells, mAb titration revealed with GAM-PE; printed as ED 50. How it is done:
as §2

Some results are limits rather than exact numbers.

B1: ICOS 88-2 (antibody, V domains shown)
VH: QVQLQQPGAELVRPGASVKLSCKASGYSFTSYWINWVKQRPGQGLEWIGNIYPSDSYTNYNQMFKDKATLTVDKSSNTAYMQLTSPTSEDSAVYYCTRWNLSYYFDNNYYLDYWGQGTTLTVSS
VL: DIVMTQAAPSVPVTPGESVSISCRSSKSLLHSNGNTYLYWFLQRPGQSPQLLIYRMSNLASGVPDRFSGSGSGTAFTLRISRVEAEDVGVYYCMQHLEYPWTFGGGTKLEIK
notes: Mouse hybridoma monoclonal antibody; isotype printed as IgG1-L; Agonist of ICOS; also called anti-ICOS mAb 88-2
Broadly, the IC50 is the midpoint of a concentration-inhibition curve. A high value points to a need for much substance. As a reminder, the EC50 is the concentration at which the effect is half-maximal. In assay [1], B1 returned an IC50 of 17 µg/mL. In addition, the EC50 in assay [2] is 1.6 µg/mL.

B2: ICOS 314-8 (antibody, V domains shown)
VH: QVQLQQPGTELMKPGASVKLSCKASGYTFTTYWMHWVKQRPGQGLEWIGEIDPSDSYVNYNQNFKGKATLTVDKSSSTAYIQLSSLTSEDSAVYFCARSPDYYGTSLAWFDYWGQGTLVTVST
VL: DIVMTQAAPSVPVTPGESVSISCRSSKSPLHSNGNIYLYWFLQRPGQSPQLLIYRMSNLASGVPDRFSGSGSGTTFTLKISRVEAEDVGVYYCMQHLEYPYTFGGGTKLEIK
notes: Mouse hybridoma monoclonal antibody; isotype printed as IgG1-K; Antagonist of ICOS
With B2, the values for the IC50 in assay [1] and in assay [3] were 0.29 µg/mL and less than 1000 µg/mL, respectively. For the same molecule, the EC50 in assay [4] was less than 0.5 µg/mL; in assay [2] it was 0.06 µg/mL.

The record behind these values is patent publication US20160264666A1 (INSERM INSTITUT NATIONAL DE LA SANTE ET DE LA RECHERCHE …, published 2016).
